Entries after “also recorded” stand apart in the source; their conditions may differ.
What was measured:
[1] = Relaxivity measurements (60 MHz, 37 °C); type: physicochemical; settings: 60 MHz (1.4 T), Bruker minispec mq60, Gd^3+ concentration by ICP-OES
Description: Relaxivity measurements were performed on a Bruker® minispec mq60NMR analyzer (Brucker, USA) at 37 °C at 1.4 T (60 MHz). Samples were measured at a specific Gd^3+ concentration (mM), calculated from ICP-OES. The longitudinal relaxation time T1 and the transverse relaxation time T2 (s) were measured at 60 MHz and at 37 °C. Then the relaxivities ri (s^−1 mM^−1) were obtained according to the following formula: 1/Timeasured=1/Tiwater+riGd^3+ where i = 1 or 2.

[2] = test system: amyloid fibrils; settings: cited from earlier work
Text: Currently, magnetic resonance imaging (MRI) is the preferred neuroimaging examination for AD as it allows an accurate measurement of brain structures’ volume, although a decrease of this latter appears to be a nonspecific and late feature of cerebral vascular diseases’ progression. Thus, studies are under way to develop specific imaging markers for different types of dementia, including markers of senile plaques for very-high-field MRI and positron emission tomography (PET). A better characterization of the amyloid plaque presence and load in the brain can be also expected from i ...

[3] = test system: Aβ amyloid plaques (APPswe/PS1A246E/TTR(−/−) transgenic mouse brain sections); assay: Immunohistochemistry on AD mouse brain sections with amyloid plaques; settings: 10 months old APPswe/PS1A246E/TTR(−/−) hippocampus, nanoparticles at 3 nM Cy5.5 (2 mM Gd^3+) with 3 mM ungrafted nanoparticles, or PIB 1 µM, 1h30 RT, fluorescence
[4] = test system: fibrils; assay: Cy5.5 staining of fibrils in vitro (personal data); type: binding; settings: in vitro on fibrils (personal data)
[5] = test system: Aβ amyloid plaques (APPswe/PS1A246E/TTR(−/−) transgenic mouse brain sections); settings: cited from earlier work
Description: The specificity of functionalized nanoparticles binding was verified, by incubating nanoparticles without grafted-peptides, AGuIX@PEG@Cy5.5, on brain section containing amyloid burden. […] Whereas, various other cyanine derivative d ...

[6] = test system: V30M-TTR fibrils; assay: SPR binding to V30M-TTR fibrils; design: species or system human; settings: 800 R.U. V30M-TTR fibrils, 0.02–6.4 mM in peptide, R.U. 141 s after end of injection
Text: N-(3-Dimethylaminopropyl)-N′-ethylcarbodiimide hydrochloride (EDC, >98.0 %), N-hydroxysuccinimide (NHS, >97.0 %), gadolinium chloride hexahydrate ([GdCl3·6H2O], 99 %), sodium hydroxide (NaOH, 99.99 %), hydrochloric acid (HCl, 36.5–38 %), sodium chloride (NaCl, >99.5 %), dimethyl sulfoxide (DMSO, >99.5 %), acetonitrile (CH3CN, >99.9 %), trifluoroacetic acid (TFA, >99 %), trinitrobenzene sulfonic acid (TNBS) 1 M in water, sodium dodecyl sulfate (SDS, >99 %), (3-aminopropyl)triethoxysilane (APTES, >98 %), tetraethyl orthosilicate (TEOS; >98 %) and Poly(ethylene glycol) bis(carboxymethyl) ether (PEG) with an average molecular weight Mn = 250 g mol^−1 were purchased from Aldrich Chemical (France) and used without further purification. Diethylene glycol (DEG, 99 %) was purchased from SDS Carlo Erba (France). Acetone (reagent grade) was purchased from Sodipro (France) and was used as received. […] Recombinant human V30M-TTR protein was obtained following cloning its gene in the plasmid pQE81L and its expression in Escherichia coli (M15). Briefly, bacterial cultures were performed in LB medium, 100 µg mL^−1 ampicillin and 25 µg mL^−1 kanamycin, at 37 °C, under constant orbital shaking. Protein production was pursued for 7 h after IPTG induction when the absorbance was 0.700 at 600 nm. The bacterial pellet of 50 mL of culture was resuspended in sodium phosphate 50 mM, pH 8, sodium chloride 300 mM, imidazole 10 mM, betamercaptoethanol 10 mM, supplemented with 500 µL of a protease inhibitor, phenylmethylsulfonyl fluoride (Sigma, #78830), at 1 mM final and a cocktail of protease inhibitor EDTA-free (Roche, #11873580001). The suspension was sonicated during a total time of 6 min with repeated cycles of 5/7 s off with an amplitude of 20 %, then centrifuged during 30 min at 100,000g, to pellet cellular debris. The supernatant was filtered on 0.2 µm cut off filters. The purification of the protein was performed on immobilized metal ion chromatography (Chelating Fast Flow, Amersham #17057501), and dialyzed against 20 mM·NH4HCO3 (membrane cutoff 1/10,000; 3500 MWCO Spectrapore). Finally, the protein was freeze-dried. The protein quality was checked by SDS PAGE gel 15 %. The Pittsburgh compound-B (PIB) derivative molecule was synthetized according to the procedure already described in the literature. Starting from the p-anisidine, the p-nitrobenzoyl amide was readily obtained and then the corresponding thioamide was prepared by reaction with Lawesson’s reagent. Finally, an oxidative cyclization was done to lead to the benzothiazole derivative, and the nitro function was reduced to give compound (Synthesis’ details in Additional file 1). […]

[7] = Dynamic light scattering, hydrodynamic diameter; type: physicochemical; settings: DLS, Zetasizer NanoS, 532 nm, 10 mM Gd^3+, 0.2 µm filtered; measurement repeated 8 times
Description: Hydrodynamic diameters (DH) of the Nps were determined with a Zetasizer NanoS (laser He–Ne 532 nm) from Malvern Instrument® (5 mW, with 173° NIBS detector and narrow band filter). Attenuator was optimized by the device and position was set to the center of the cell. To perform the measurement, 1 mL of nanoparticles suspensions at 10 mM Gd^3+ was poured in a 12 mm square polystyrene disposable cuvette after filtration on a 0.2 µm cut-off nylon filter. Each measurement was repeated 8 times.

[8] = test system: SH-SY5Y; assay: MTT cell viability
Description: The innocuousness of the grafted Nps was assessed using a neuronal cell line SH-SY5Y. The cell viability was assessed using the 3-(4,5-dimethylthiazol-2yl)-2,5-diphenyltetrazolium bromide (MTT) assay^63. SH-SY5Y cells were cultured in DMEM/F12 medium supplemented with 10 % fetal bovine serum and 1 % penicillin -streptomycin /amphotericin B. For the assay, the cells were plated at a density of 50 000 cells/well in 200 µl of medium. […] Nps were added to the cells and incubated at 37 °C, 5 % CO2. One hour later, 10 μL of MTT solutions (12 mM) was added into each well, and the plates were incubated for another 2 h at 37°C, 5% CO2. The culture medium was removed, and the precipitated cells were lysed using DMSO. After 10 minutes, the purple crystals were dissolved completely; the cell viability was calculated from the absorbance signals measured by a plate reader (Tecan Infinite M200) at 540 nm. The absorbance of the wells containing medium-only, corresponding to the background, were subtracted from the value of each reading. Data are expressed in % of cell viability, each MTT analysis was carried out on triplicate samples.

[9] = target: T1, Aβ(1–42) fibrils (Homo sapiens, UniProt P05067); assay: Partition (spectrofluorometric) binding to Aβ(1–42) fibrils; settings: 20 µM fibrils, 2 µM nanoparticles, saturated with 3 mM AGuIX, 60 min; data not shown
T1 construct: Freeze-dried Aβ(1–42) peptide (Genecust) was dissolved in distilled water at pH 11.0; purchased Genecust (Luxembourg)

[10] = target: T1, Aβ(1–42) fibrils; assay: SPR binding to Aβ(1–42) fibrils
Description: The surface plasmon resonance assays were performed using a BIAcore® 2000 biosensor. The instrument was equipped with a CM3 sensor chip (GE Healthcare®, Uppsala, Sweden). The interaction studies took place on a gold chip functionalized with carboxymethylated dextran. The sensor surface itself form one wall of a flow cell, which is an integral part of the microfluidic system. All SPR experiments were performed at 25 °C. HEPES buffer (HBS-P, GE Healthcare®, 0.01 M HEPES, 0.15 M NaCl, 0.005 % surfactant p20) was used as running buffer.
For immobilization, amine coupling reagents were obtained from the GE Healthcare® kit containing 0.2 M EDC in water, 0.05 M NHS in water and ethanolamine-HCl pH 8.5. […] Aβ(1–42) and V30M-TTR fibrils were immobilized on the flow cell 2 and 4 respectively of a CM3 sensor chip with an amine coupling reaction. After the chip activation by EDC/NHS during 7 min, the fibrils were injected at: 10 µM in 10 mM sodium acetate pH 4 at a flow rate of 5 µL min^−1 during 20 min for Aβ(1–42) fibrils or at 0.36 µM in 10 mM sodium acetate pH 5.5 at a flow rate of 5 µL min^−1 during 100 min for V30M-TTR fibrils. […]
Biacore® experiments gathered data from 3 cycles for each studied analyte. […] Results of the interaction between the analytes and the Aβ(1–42) or V30M-TTR fibrils were represented on a sensorgram expressed as respectively FC2-1 or FC4-3 (RU-RUdextran) versus time. […]

T1 sequence (P05067 672-713): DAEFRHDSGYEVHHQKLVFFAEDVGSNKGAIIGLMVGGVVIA

With `CNC[C@H](O)[C@@H](O)[C@H](O)[C@H](O)CO.O=C([O-])CN1CCN(CC(=O)[O-])CCN(CC(=O)O)CCN(CC(=O)[O-])CC1.[Gd+3]` [DOTAREM®, reference compound] the “r1 (longitudinal relaxivity)” value [1] was 3.4 s⁻¹ mM⁻¹.

In the case of `CNc1ccc(-c2nc3ccc(O)cc3s2)cc1` [Pittsburgh compound B, [^11C]2-(4′-methylaminophenyl)-6-hydroxybenzothiazole], the “binding to amyloid fibrils” value [2] is listed as “binds with high affinity to any amyloid fibrils”.

For Cy5.5 [reference compound], the “binding/staining of amyloid plaques in AD mouse brain sections” value (from here on “binding/staining of amyloid plaques”) [3] is given as “non-binding of Cy5.5 dye to amyloid plaque; also recorded: background due to the Cy5.5 restricted to blood vessels”, the “staining of fibrils by Cy5.5 molecule” value [4] is given as “does not stain fibrils” and the “staining by Cy5.5 on brain section of AD mouse model” value [5] is given as “does not stain fibrils”.

In the case of KLVFF [AGuIX@PEG@KLVFF@Cy5.5], the “interaction with V30M-TTR fibrils” value [6] is reported as “no specific interaction”, the “interaction with V30M-TTR fibrils” value ([6]; listed as KLVFF-grafted) is reported as “did not interact with V30M-TTR fibrils” and the “binding/staining of amyloid plaques” value [3] is reported as “beta-amyloid plaques were visualized; also recorded: bind selectively amyloid plaque constituted by Aβ protein”. The “binding/staining of amyloid plaques” value ([3]; listed as KLVFF-grafted) was “recognized and bound the Aβ amyloid plaque localized in the mouse hippocampus”.

In the case of KLVFF [AGuIX@PEG@KLVFF], the “r1 (longitudinal relaxivity)” value [1] is reported as 14.1 s⁻¹ mM⁻¹ and the hydrodynamic diameter [7] is reported as 3.5 ± 0.9 nm.

With LPFFD [AGuIX@PEG@LPFFD] the “r1 (longitudinal relaxivity)” value [1] was 13.2 s⁻¹ mM⁻¹, the hydrodynamic diameter [7] was 3.2 ± 0.8 nm and the “cells alive (Fig. S7)” value ([8]; 1 h at 37 °C, 5 % CO2, up to 2 mM nanoparticles, MTT 2 h, 540 nm, triplicate) was “more than 80%”.

In the case of LPFFD [AGuIX@PEG@LPFFD@Cy5.5], the “Cy5.5 fluorescence associated with fibrils” value [9] is reported as “no fluorescence has been detected associated with fibrils”, the “interaction (R.U. remaining 141 s after end of injection)” value ([10]; 2.5 mM in Gd^3+) is reported as “interact with Aβ(1–42) fibrils” and the “interaction over nanoparticle concentration range” value ([10]; 0.02–6.4 mM in peptide, R.U. 141 s after end of injection) is reported as “displayed an interaction on Aβ(1–42) fibrils (blue curves) dependent on nanoparticle concentrations injected”. The “interaction with V30M-TTR fibrils” value [6] was “no specific interaction”, the “interaction with V30M-TTR fibrils” value ([6]; listed as LPFFD-grafted) was “did not interact with V30M-TTR fibrils” and the “binding/staining of amyloid plaques” value [3] was “beta-amyloid plaques were visualized; also recorded: bind selectively amyloid plaque constituted by Aβ protein”. The “binding/staining of amyloid plaques” value ([3]; listed as LPFFD-grafted) was “recognized and bound the Aβ amyloid plaque localized in the mouse hippocampus”, the cells alive ([8]; 5 mM Gd^3+, MTT) was “more than 75%” and the cells alive ([8]; 1 h incubation, 0.5 to 2 mM Gd^3+, MTT) was “more than 80%”. For the same molecule, the “toxic effects on cells” value ([8]; MTT, up to 5 mM Gd^3+) was “do not exhibit any toxic effects on cells”.

Source: article PMC4960888, “Gd-nanoparticles functionalization with specific peptides for ß-amyloid plaques targeting” (Journal of Nanobiotechnology, 2016)
